Data: US20260167699A1 (Chugai, published 2026)

molecular target: T1, FcγRIIIa extracellular domain, C-terminal His tag (human, UniProt P08637 17-208); experiment: SPR, binding activity relative to GpH7-A5/GpH7-B3/GpL16-k0 (=100)
T1 construct: extracellular domain; also called 3a
T1 sequence (P08637 other isoform, or with tags, fused parts or gaps): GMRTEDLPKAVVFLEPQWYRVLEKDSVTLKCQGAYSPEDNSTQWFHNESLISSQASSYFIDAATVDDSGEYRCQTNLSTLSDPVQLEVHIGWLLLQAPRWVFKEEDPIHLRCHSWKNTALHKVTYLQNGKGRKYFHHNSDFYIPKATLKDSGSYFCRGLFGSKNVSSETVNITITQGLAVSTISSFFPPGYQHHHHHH

Binder | He/Con 3a
GpH7-A5/GpH7-B3 variant E269_15Y/GpL16-k0 (antibody, human IgG1, kappa, He Ab; copies: 1 + 1 + 2) heavy 1: not shown heavy 2: not shown light: DIVMTQSPLSLPVTPGEPASISCQASESLVHSNRNTYLHWYLQKPGQSPQLLIYKVSNRFSGVPDRFSGSGSGTDFTLKISRVEAEDVGVYYCSQNTHVPPTFGQGTKVEIERTVAAPSVFIFPPSDEQLKSGTASVVCLLNNFYPREAKVQWKVDNALQSGNSQESVTEQDSKDSTYSLSSTLTLSKADYEKHKVYACEVTHQGLSSPVTKSFNRGEC | 51.5%
GpH7-A5/GpH7-B3 variant E269_16H/GpL16-k0 (antibody, human IgG1, kappa, He Ab; copies: 1 + 1 + 2) heavy 1: not shown heavy 2: not shown light: DIVMTQSPLSLPVTPGEPASISCQASESLVHSNRNTYLHWYLQKPGQSPQLLIYKVSNRFSGVPDRFSGSGSGTDFTLKISRVEAEDVGVYYCSQNTHVPPTFGQGTKVEIERTVAAPSVFIFPPSDEQLKSGTASVVCLLNNFYPREAKVQWKVDNALQSGNSQESVTEQDSKDSTYSLSSTLTLSKADYEKHKVYACEVTHQGLSSPVTKSFNRGEC | 50.7%
GpH7-A5/GpH7-B3 variant E269_18N/GpL16-k0 (antibody, human IgG1, kappa, He Ab; copies: 1 + 1 + 2) heavy 1: not shown heavy 2: not shown light: DIVMTQSPLSLPVTPGEPASISCQASESLVHSNRNTYLHWYLQKPGQSPQLLIYKVSNRFSGVPDRFSGSGSGTDFTLKISRVEAEDVGVYYCSQNTHVPPTFGQGTKVEIERTVAAPSVFIFPPSDEQLKSGTASVVCLLNNFYPREAKVQWKVDNALQSGNSQESVTEQDSKDSTYSLSSTLTLSKADYEKHKVYACEVTHQGLSSPVTKSFNRGEC | 57.2%
GpH7-A5/GpH7-B3 variant E269_19Q/GpL16-k0 (antibody, human IgG1, kappa, He Ab; copies: 1 + 1 + 2) heavy 1: not shown heavy 2: not shown light: DIVMTQSPLSLPVTPGEPASISCQASESLVHSNRNTYLHWYLQKPGQSPQLLIYKVSNRFSGVPDRFSGSGSGTDFTLKISRVEAEDVGVYYCSQNTHVPPTFGQGTKVEIERTVAAPSVFIFPPSDEQLKSGTASVVCLLNNFYPREAKVQWKVDNALQSGNSQESVTEQDSKDSTYSLSSTLTLSKADYEKHKVYACEVTHQGLSSPVTKSFNRGEC | 64.3%
GpH7-A5/GpH7-B3 variant E333_01G/GpL16-k0 (antibody, human IgG1, kappa, He Ab; copies: 1 + 1 + 2) heavy 1: not shown heavy 2: not shown light: DIVMTQSPLSLPVTPGEPASISCQASESLVHSNRNTYLHWYLQKPGQSPQLLIYKVSNRFSGVPDRFSGSGSGTDFTLKISRVEAEDVGVYYCSQNTHVPPTFGQGTKVEIERTVAAPSVFIFPPSDEQLKSGTASVVCLLNNFYPREAKVQWKVDNALQSGNSQESVTEQDSKDSTYSLSSTLTLSKADYEKHKVYACEVTHQGLSSPVTKSFNRGEC | 101%
GpH7-A5/GpH7-B3 variant E333_06M/GpL16-k0 (antibody, human IgG1, kappa, He Ab; copies: 1 + 1 + 2) heavy 1: not shown heavy 2: not shown light: DIVMTQSPLSLPVTPGEPASISCQASESLVHSNRNTYLHWYLQKPGQSPQLLIYKVSNRFSGVPDRFSGSGSGTDFTLKISRVEAEDVGVYYCSQNTHVPPTFGQGTKVEIERTVAAPSVFIFPPSDEQLKSGTASVVCLLNNFYPREAKVQWKVDNALQSGNSQESVTEQDSKDSTYSLSSTLTLSKADYEKHKVYACEVTHQGLSSPVTKSFNRGEC | 100%
GpH7-A5/GpH7-B3 variant E333_07I/GpL16-k0 (antibody, human IgG1, kappa, He Ab; copies: 1 + 1 + 2) heavy 1: not shown heavy 2: not shown light: DIVMTQSPLSLPVTPGEPASISCQASESLVHSNRNTYLHWYLQKPGQSPQLLIYKVSNRFSGVPDRFSGSGSGTDFTLKISRVEAEDVGVYYCSQNTHVPPTFGQGTKVEIERTVAAPSVFIFPPSDEQLKSGTASVVCLLNNFYPREAKVQWKVDNALQSGNSQESVTEQDSKDSTYSLSSTLTLSKADYEKHKVYACEVTHQGLSSPVTKSFNRGEC | 100%
GpH7-A5/GpH7-B3 variant E333_11K/GpL16-k0 (antibody, human IgG1, kappa, He Ab; copies: 1 + 1 + 2) heavy 1: not shown heavy 2: not shown light: DIVMTQSPLSLPVTPGEPASISCQASESLVHSNRNTYLHWYLQKPGQSPQLLIYKVSNRFSGVPDRFSGSGSGTDFTLKISRVEAEDVGVYYCSQNTHVPPTFGQGTKVEIERTVAAPSVFIFPPSDEQLKSGTASVVCLLNNFYPREAKVQWKVDNALQSGNSQESVTEQDSKDSTYSLSSTLTLSKADYEKHKVYACEVTHQGLSSPVTKSFNRGEC | 97.7%
GpH7-A5/GpH7-B3 variant E333_12R/GpL16-k0 (antibody, human IgG1, kappa, He Ab; copies: 1 + 1 + 2) heavy 1: not shown heavy 2: not shown light: DIVMTQSPLSLPVTPGEPASISCQASESLVHSNRNTYLHWYLQKPGQSPQLLIYKVSNRFSGVPDRFSGSGSGTDFTLKISRVEAEDVGVYYCSQNTHVPPTFGQGTKVEIERTVAAPSVFIFPPSDEQLKSGTASVVCLLNNFYPREAKVQWKVDNALQSGNSQESVTEQDSKDSTYSLSSTLTLSKADYEKHKVYACEVTHQGLSSPVTKSFNRGEC | 92.2%
GpH7-A5/GpH7-B3 variant E333_14T/GpL16-k0 (antibody, human IgG1, kappa, He Ab; copies: 1 + 1 + 2) heavy 1: not shown heavy 2: not shown light: DIVMTQSPLSLPVTPGEPASISCQASESLVHSNRNTYLHWYLQKPGQSPQLLIYKVSNRFSGVPDRFSGSGSGTDFTLKISRVEAEDVGVYYCSQNTHVPPTFGQGTKVEIERTVAAPSVFIFPPSDEQLKSGTASVVCLLNNFYPREAKVQWKVDNALQSGNSQESVTEQDSKDSTYSLSSTLTLSKADYEKHKVYACEVTHQGLSSPVTKSFNRGEC | 100%
GpH7-A5/GpH7-B3 variant E333_18N/GpL16-k0 (antibody, human IgG1, kappa, He Ab; copies: 1 + 1 + 2) heavy 1: not shown heavy 2: not shown light: DIVMTQSPLSLPVTPGEPASISCQASESLVHSNRNTYLHWYLQKPGQSPQLLIYKVSNRFSGVPDRFSGSGSGTDFTLKISRVEAEDVGVYYCSQNTHVPPTFGQGTKVEIERTVAAPSVFIFPPSDEQLKSGTASVVCLLNNFYPREAKVQWKVDNALQSGNSQESVTEQDSKDSTYSLSSTLTLSKADYEKHKVYACEVTHQGLSSPVTKSFNRGEC | 76.2%
GpH7-A5/GpH7-B3 variant G236_02A/GpL16-k0 (antibody, human IgG1, kappa, He Ab; copies: 1 + 1 + 2) heavy 1: not shown heavy 2: not shown light: DIVMTQSPLSLPVTPGEPASISCQASESLVHSNRNTYLHWYLQKPGQSPQLLIYKVSNRFSGVPDRFSGSGSGTDFTLKISRVEAEDVGVYYCSQNTHVPPTFGQGTKVEIERTVAAPSVFIFPPSDEQLKSGTASVVCLLNNFYPREAKVQWKVDNALQSGNSQESVTEQDSKDSTYSLSSTLTLSKADYEKHKVYACEVTHQGLSSPVTKSFNRGEC | 77%
GpH7-A5/GpH7-B3 variant G236_03V/GpL16-k0 (antibody, human IgG1, kappa, He Ab; copies: 1 + 1 + 2) heavy 1: not shown heavy 2: not shown light: DIVMTQSPLSLPVTPGEPASISCQASESLVHSNRNTYLHWYLQKPGQSPQLLIYKVSNRFSGVPDRFSGSGSGTDFTLKISRVEAEDVGVYYCSQNTHVPPTFGQGTKVEIERTVAAPSVFIFPPSDEQLKSGTASVVCLLNNFYPREAKVQWKVDNALQSGNSQESVTEQDSKDSTYSLSSTLTLSKADYEKHKVYACEVTHQGLSSPVTKSFNRGEC | 53.8%
GpH7-A5/GpH7-B3 variant G236_04F/GpL16-k0 (antibody, human IgG1, kappa, He Ab; copies: 1 + 1 + 2) heavy 1: not shown heavy 2: not shown light: DIVMTQSPLSLPVTPGEPASISCQASESLVHSNRNTYLHWYLQKPGQSPQLLIYKVSNRFSGVPDRFSGSGSGTDFTLKISRVEAEDVGVYYCSQNTHVPPTFGQGTKVEIERTVAAPSVFIFPPSDEQLKSGTASVVCLLNNFYPREAKVQWKVDNALQSGNSQESVTEQDSKDSTYSLSSTLTLSKADYEKHKVYACEVTHQGLSSPVTKSFNRGEC | 81%
GpH7-A5/GpH7-B3 variant G236_07I/GpL16-k0 (antibody, human IgG1, kappa, He Ab; copies: 1 + 1 + 2) heavy 1: not shown heavy 2: not shown light: DIVMTQSPLSLPVTPGEPASISCQASESLVHSNRNTYLHWYLQKPGQSPQLLIYKVSNRFSGVPDRFSGSGSGTDFTLKISRVEAEDVGVYYCSQNTHVPPTFGQGTKVEIERTVAAPSVFIFPPSDEQLKSGTASVVCLLNNFYPREAKVQWKVDNALQSGNSQESVTEQDSKDSTYSLSSTLTLSKADYEKHKVYACEVTHQGLSSPVTKSFNRGEC | 55.6%
GpH7-A5/GpH7-B3 variant G236_09D/GpL16-k0 (antibody, human IgG1, kappa, He Ab; copies: 1 + 1 + 2) heavy 1: not shown heavy 2: not shown light: DIVMTQSPLSLPVTPGEPASISCQASESLVHSNRNTYLHWYLQKPGQSPQLLIYKVSNRFSGVPDRFSGSGSGTDFTLKISRVEAEDVGVYYCSQNTHVPPTFGQGTKVEIERTVAAPSVFIFPPSDEQLKSGTASVVCLLNNFYPREAKVQWKVDNALQSGNSQESVTEQDSKDSTYSLSSTLTLSKADYEKHKVYACEVTHQGLSSPVTKSFNRGEC | 66.2%
GpH7-A5/GpH7-B3 variant G236_10E/GpL16-k0 (antibody, human IgG1, kappa, He Ab; copies: 1 + 1 + 2) heavy 1: not shown heavy 2: not shown light: DIVMTQSPLSLPVTPGEPASISCQASESLVHSNRNTYLHWYLQKPGQSPQLLIYKVSNRFSGVPDRFSGSGSGTDFTLKISRVEAEDVGVYYCSQNTHVPPTFGQGTKVEIERTVAAPSVFIFPPSDEQLKSGTASVVCLLNNFYPREAKVQWKVDNALQSGNSQESVTEQDSKDSTYSLSSTLTLSKADYEKHKVYACEVTHQGLSSPVTKSFNRGEC | 65.8%
GpH7-A5/GpH7-B3 variant G236_15Y/GpL16-k0 (antibody, human IgG1, kappa, He Ab; copies: 1 + 1 + 2) heavy 1: not shown heavy 2: not shown light: DIVMTQSPLSLPVTPGEPASISCQASESLVHSNRNTYLHWYLQKPGQSPQLLIYKVSNRFSGVPDRFSGSGSGTDFTLKISRVEAEDVGVYYCSQNTHVPPTFGQGTKVEIERTVAAPSVFIFPPSDEQLKSGTASVVCLLNNFYPREAKVQWKVDNALQSGNSQESVTEQDSKDSTYSLSSTLTLSKADYEKHKVYACEVTHQGLSSPVTKSFNRGEC | 112%
GpH7-A5/GpH7-B3 variant G236_20W/GpL16-k0 (antibody, human IgG1, kappa, He Ab; copies: 1 + 1 + 2) heavy 1: not shown heavy 2: not shown light: DIVMTQSPLSLPVTPGEPASISCQASESLVHSNRNTYLHWYLQKPGQSPQLLIYKVSNRFSGVPDRFSGSGSGTDFTLKISRVEAEDVGVYYCSQNTHVPPTFGQGTKVEIERTVAAPSVFIFPPSDEQLKSGTASVVCLLNNFYPREAKVQWKVDNALQSGNSQESVTEQDSKDSTYSLSSTLTLSKADYEKHKVYACEVTHQGLSSPVTKSFNRGEC | 126%
GpH7-A5/GpH7-B3 variant G237_03V/GpL16-k0 (antibody, human IgG1, kappa, He Ab; copies: 1 + 1 + 2) heavy 1: not shown heavy 2: not shown light: DIVMTQSPLSLPVTPGEPASISCQASESLVHSNRNTYLHWYLQKPGQSPQLLIYKVSNRFSGVPDRFSGSGSGTDFTLKISRVEAEDVGVYYCSQNTHVPPTFGQGTKVEIERTVAAPSVFIFPPSDEQLKSGTASVVCLLNNFYPREAKVQWKVDNALQSGNSQESVTEQDSKDSTYSLSSTLTLSKADYEKHKVYACEVTHQGLSSPVTKSFNRGEC | 51.3%
GpH7-A5/GpH7-B3 variant G237_14T/GpL16-k0 (antibody, human IgG1, kappa, He Ab; copies: 1 + 1 + 2) heavy 1: not shown heavy 2: not shown light: DIVMTQSPLSLPVTPGEPASISCQASESLVHSNRNTYLHWYLQKPGQSPQLLIYKVSNRFSGVPDRFSGSGSGTDFTLKISRVEAEDVGVYYCSQNTHVPPTFGQGTKVEIERTVAAPSVFIFPPSDEQLKSGTASVVCLLNNFYPREAKVQWKVDNALQSGNSQESVTEQDSKDSTYSLSSTLTLSKADYEKHKVYACEVTHQGLSSPVTKSFNRGEC | 50.5%
GpH7-A5/GpH7-B3 variant H268_01G/GpL16-k0 (antibody, human IgG1, kappa, He Ab; copies: 1 + 1 + 2) heavy 1: not shown heavy 2: not shown light: DIVMTQSPLSLPVTPGEPASISCQASESLVHSNRNTYLHWYLQKPGQSPQLLIYKVSNRFSGVPDRFSGSGSGTDFTLKISRVEAEDVGVYYCSQNTHVPPTFGQGTKVEIERTVAAPSVFIFPPSDEQLKSGTASVVCLLNNFYPREAKVQWKVDNALQSGNSQESVTEQDSKDSTYSLSSTLTLSKADYEKHKVYACEVTHQGLSSPVTKSFNRGEC | 95.7%
